Consider 2 molecules from patent US20240343803A1 (SHANDONG SIMCERE BIOPHARMACEUTICAL, published 2024).

Values joined by “and” are separate entries in the source; they are usually repeats but may differ in a detail not shown here. Identical values can stand only once.

For assay [1], the target named is T1, Fusion protein of extracellular domain of human TIGIT and His-tag (human TIGIT ECD-his) (human).
T1 chain: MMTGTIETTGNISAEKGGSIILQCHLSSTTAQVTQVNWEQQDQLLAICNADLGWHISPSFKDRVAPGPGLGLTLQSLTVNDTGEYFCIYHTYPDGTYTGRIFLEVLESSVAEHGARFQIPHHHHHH
Briefly: BIAcore.

Assay [2] deals with T1, Fusion protein of extracellular domain …. Briefly: BIAcore (second series).
Assay [3] concerns the target T2, Fusion protein of extracellular domain of human TIGIT and mouse IgG2a Fc fragment (human TIGIT ECD-mFc) (human).
T2 construct: The entry includes the signal peptide (limits not recoverable) and the mouse IgG2a Fc
T2 chain: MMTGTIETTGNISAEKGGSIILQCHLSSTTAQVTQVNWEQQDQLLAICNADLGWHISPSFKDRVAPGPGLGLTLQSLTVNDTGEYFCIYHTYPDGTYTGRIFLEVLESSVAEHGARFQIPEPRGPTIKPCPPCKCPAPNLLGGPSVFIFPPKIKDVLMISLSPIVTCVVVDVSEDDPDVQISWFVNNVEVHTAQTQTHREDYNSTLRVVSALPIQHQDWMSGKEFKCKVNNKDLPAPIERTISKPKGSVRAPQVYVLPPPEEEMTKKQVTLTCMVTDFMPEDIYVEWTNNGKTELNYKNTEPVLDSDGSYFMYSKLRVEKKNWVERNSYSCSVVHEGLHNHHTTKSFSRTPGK
Briefly: ELISA, human TIGIT ECD-mFc. A digest of the protocol:
(§1)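 Plates blocked with 5% skim milk-PBS at 37° C for 2-4 h. Test antibodies applied as a 12-point 3-fold series from 13 nM for 1.5-2 h at 37° C. Read-out: HRP secondary (1:5000, 1 h, 37° C), TMB colour for 7-10 min at room temperature, acid stop, absorbance at OD450 nm.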

Assay [4] deals with T1, Fusion protein of extracellular domain …. Description: BIAcore; KD ratio to TIGIT-CHI-005.
Assay [5] concerns the target T3, Fusion protein of extracellular domain of cynomolgus monkey TIGIT and mouse IgG2a Fc fragment (cynomolgus … (cynomolgus monkey)).
T3 construct: The entry includes the signal peptide (limits not recoverable) and the mouse IgG2a Fc
Description: ELISA, cynomolgus monkey TIGIT ECD-mFc. The method, boiled down:
as §1

Assay [6] has as its target T4, Full-length cynomolgus monkey TIGIT on CHO-K1 cells (CHO-K1 cynomolgus monkey TIGIT) (cynomolgus monkey).
T4 construct: NCBI XP_015300911.1
Description: cell binding, CHO-K1 cynomolgus monkey TIGIT. The method, boiled down:
(§2)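 Binding was measured by flow cytometry after a 60-minute, 4° C incubation of the antibodies with 2×10⁵ CHO-K1 cells displaying full-length human or cynomolgus monkey TIGIT. Antibody titration: 12 points, threefold serial dilution from 80 nM, in 1% BSA-PBS.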

For assay [7], the target named is T1, Fusion protein of extracellular domain …. Briefly: BIAcore (second series); serves as reference of r34-r37.
Assay [8] concerns the target T5, Fusion protein of extracellular domain of human TIGIT and human IgG1 Fc fragment (human TIGIT ECD-hFc) (human).
T5 construct: The entry includes the signal peptide (limits not recoverable) and the human IgG1 Fc
Briefly: blocking of TIGIT ECD-hFc binding to CHO-K1 CD155 cells. The method, boiled down:
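The inhibition curves from which IC50 was calculated were generated by cell-based ELISA. Fixed CHO-K1 CD155 cells, blocked with 5% skim milk-PBS, were incubated at 37° C for 1.5-2 h with antibodies that had been premixed for 0.5 h with human TIGIT ECD-hFc at a working concentration of 30 ng/mL. Detection of bound TIGIT used HRP secondary antibody at 1:5000 for 1 h at 37° C, followed by TMB and reading as OD450 nm.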

Assay [9] deals with T6, Full-length human TIGIT on CHO-K1 cells (CHO-K1 human TIGIT) (human, UniProt Q495A1 22-244).
T6 construct: NCBI XP_024309156.1; the entry includes the signal peptide (limits not recoverable); The strain (high, medium, low) is named under assay; also called high expression strain 1D2; medium expression strain 2D10
T6 sequence: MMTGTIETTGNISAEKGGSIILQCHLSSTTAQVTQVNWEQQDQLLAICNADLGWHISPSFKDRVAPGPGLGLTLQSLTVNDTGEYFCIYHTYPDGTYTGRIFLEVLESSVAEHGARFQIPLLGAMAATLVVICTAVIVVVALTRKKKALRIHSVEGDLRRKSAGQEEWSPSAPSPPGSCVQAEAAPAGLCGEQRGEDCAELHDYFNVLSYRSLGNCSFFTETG
Description: cell binding, CHO-K1 human TIGIT high expression strain. The method, boiled down: as §2

In assay [10] the target is T7, human PVRIG on FlpinCHO-PVRIG cells (human, UniProt Q6DKI7 41-326).
T7 construct: whole, on cells; also called FlpinCHO-hPVRIG; FlpinCHO-human PVRIG
T7 sequence (looked up): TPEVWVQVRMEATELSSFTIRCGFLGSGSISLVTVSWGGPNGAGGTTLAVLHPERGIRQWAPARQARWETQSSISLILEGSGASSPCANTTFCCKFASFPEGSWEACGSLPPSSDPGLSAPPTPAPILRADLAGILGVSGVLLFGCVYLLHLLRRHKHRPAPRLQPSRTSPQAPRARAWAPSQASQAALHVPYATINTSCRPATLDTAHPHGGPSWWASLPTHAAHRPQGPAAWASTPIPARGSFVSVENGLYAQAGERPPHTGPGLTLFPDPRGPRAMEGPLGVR
Briefly: FACS, FlpinCHO-hPVRIG cells. On the procedure: (§3) CHO-K1 stable cells ([…]-61™) transfected with human or cynomolgus monkey PVRIG high expression plasmids were named FlpinCHO-hPVRIG and FlpinCHO-cynoPVRIG. […] After discarding the cell culture medium, the cells were rinsed with PBS and digested for 8-10 minutes by adding 1 mL Versene (Gibico, 15040-066). The Ham's F12 (Gibico, 21127-022) complete medium containing 10% FBS was then added to terminate the digestion and acquire cell suspension. After cell counting, an appropriate amount of cell suspension was centrifuged at 350×g to remove the supernatant, washed twice with PBS, stained with Zombie violet (Biolegend, 423114) and incubated at room temperature for 20 minutes. After incubation, the cells were added with staining buffer (2% FBS+PBS) to stop staining, centrifuged at 350×g to remove the supernatant, washed twice and resuspended with staining buffer to a density of 2×10⁶ cells/mL. The cells were plated into a 96-well plate (50 μL of cell suspension per well) for further use. The antibodies were diluted from the highest concentration of 46 nM (two-fold concentration) with staining buffer by 3.3-fold serial dilution. The diluted antibodies were added to the well containing 50 μL of cell suspension. […] After staining, the cells were washed twice with staining buffer, finally resuspended with 200 μL staining buffer and analyzed by flow cytometry (BD, Canto II).

Assay [11] addresses T8, cynomolgus monkey PVRIG on FlpinCHO-cyno PVRIG cells (cynomolgus monkey, UniProt A0A2K5WVV8 41-322).
T8 construct: whole, on cells; also called FlpinCHO-cynomolgus monkey PVRIG
T8 sequence: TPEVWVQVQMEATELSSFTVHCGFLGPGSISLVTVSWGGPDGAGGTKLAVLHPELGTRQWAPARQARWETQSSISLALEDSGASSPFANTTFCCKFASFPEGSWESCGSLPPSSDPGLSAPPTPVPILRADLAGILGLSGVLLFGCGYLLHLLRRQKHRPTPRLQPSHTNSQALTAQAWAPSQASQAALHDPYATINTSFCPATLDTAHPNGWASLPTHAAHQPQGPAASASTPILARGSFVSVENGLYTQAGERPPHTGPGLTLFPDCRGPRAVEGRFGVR
Description: FACS, FlpinCHO cynomolgus monkey PVRIG cells. On the procedure:
as §3

Assay [12] addresses T9, human PVRIG-mFc protein (Acro, PVG-H5253) (human, UniProt Q6DKI7 41-171, limits assumed).
T9 construct: bought reagent; also called PVRIG-ECD-mFc
T9 sequence (looked up): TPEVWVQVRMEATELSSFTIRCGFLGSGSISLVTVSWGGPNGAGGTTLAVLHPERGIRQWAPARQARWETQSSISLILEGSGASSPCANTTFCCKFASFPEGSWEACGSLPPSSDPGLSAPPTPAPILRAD
Briefly: competition FACS; blocked: PVRIG-mFc binding to CHO-K1 CD112 cells. On the procedure: The Ham's F12 (Gibico, 21127-022) complete medium containing 10% FBS was then added to stop the digestion and acquire cell suspension. After counting with a cell counter (Beckman Coulter, Vi-CELL), an appropriate amount of cell suspension was centrifuged at 350×g to remove the supernatant, washed twice with PBS, stained with Zombie violet (Biolegend, 423114) and incubated at room temperature for 20 minutes. After incubation, the cells were added with staining buffer (2% FBS+PBS) to stop staining, centrifuged at 350×g to remove the supernatant, washed twice and resuspended with staining buffer to a density of 2×10⁶ cells/mL. The cells were plated into a 96-well plate (50 μL of cell suspension per well) for further use. A working solution of human PVRIG-mFc protein (Acro, PVG-H5253) prepared with staining buffer, 1 μg/mL (four-fold concentration), was added into a 96-well plate (50 μL PVRIG-mFc working solution per well). […] The diluted antibodies were added to the well containing 50 μL of PVRIG-mFc. The plate was placed on a microplate shaker at 400 rpm for 1 minute to fully mix the antibodies and PVRIG-mFc proteins, and then incubated at 4° C. for 30 minutes. After the incubation, the cell suspension prepared above (100 μL) was added into the wells, gently mixed with the pipette tip and incubated at 4° C. for 30 minutes. After the incubation, the cells were washed twice with staining buffer (200 μL per well) and centrifuged at 350×g for 5 minutes to discard the supernatant. The PE goat anti-mouse IgG Fc antibody (Biolegend, 405337) was diluted 250 times with staining buffer, added into the washed wells (100 μL per well), mixed well, and stained at 4° C. for 30 minutes. After staining, the cells were washed twice with staining buffer, finally resuspended with 200 μL staining buffer and analyzed by flow cytometry (BD, Canto II). The weaker the fluorescence signal, the stronger the ability of the antibodies blocks the binding of CHO-K1 human CD112 cells to the PVRIG-mFc protein.

T4 sequence (chain, as listed by the source limits assumed): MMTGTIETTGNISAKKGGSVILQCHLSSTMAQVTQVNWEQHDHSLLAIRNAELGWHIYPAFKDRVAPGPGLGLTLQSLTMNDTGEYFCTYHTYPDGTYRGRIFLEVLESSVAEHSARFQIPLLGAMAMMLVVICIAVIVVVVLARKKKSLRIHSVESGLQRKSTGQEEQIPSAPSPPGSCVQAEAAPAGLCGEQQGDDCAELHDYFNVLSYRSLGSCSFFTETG

B1: TIGIT-005-H2L1 (antibody, V domains shown)
VH: EVQLVQSGAEVKKPGASVKVSCKASGYAFTNYLIEWVRQAPGQRLEWMGVINPGSGGTNYKEKFKGRVTITADKSSSTAYMELSSLRSEDTAVYYCARGEYFFFDYWGQGTTVTVSS
VL: DIVMTQSPDSLAVSLGERATINCKASQHVSNGVAWYQHKPGQSPKLLIYSASYRYTGVPDRFSGSGSGTDFTLTISSLQAEDVAVYYCQQHYNTPHTFGGGTKVEIK
notes: Humanized anti-TIGIT antibody
Regarding B1, the values for the Kd in assay [1] and in [2] were 0.0378 nM and 0.0742 nM, respectively. Also, the off-rate constant (koff) in assay [1] was 0.000161 s⁻¹; in assay [2] it was 0.000263 s⁻¹. Further, the kon in assay [1] was determined as 4.26e+06 M⁻¹ s⁻¹; in assay [2] it was 3.54e+06 M⁻¹ s⁻¹. Further, the 50% effective concentration (EC50) in [3] is 0.0141 nM and 0.0247 nM; in [5], 0.0145 nM and 0.0393 nM; in [6], 0.0199 nM and 0.047 nM; in assay [9], 0.0281 nM and 0.0272 nM. For the same molecule, the “Fold change vs chimeric antibodies (KD)” value in assay [4] worked out at 1.37 fold; in assay [7] it was 1 fold. In [8], the IC50 was 0.321 nM and 0.389 nM.

B2: PVRIG-A105-H1 (VHH)
VHH: EVQLVESGGGLVQPGGSLRLSCAASGRTFDRHTMSWFRQAPGKEREFVATASRIPGDTYYVDSVKGRFTISRDNAKNSLYLQMNSLRAEDTAVYYCAATSAYCSEVDCYEKGSWYDNWGQGTMVTVSS
notes: humanized VHH; also called A105.VH1
With B2, the results for the half-maximal effective concentration (EC50 (read off the curve)) in assay [10] and in assay [11] were ~0.5 nM and ~0.4 nM, respectively. Also, in assay [12], the “IC50 (read off the curve)” value is ~1 nM.
